This is an account of results in the supplement of paper PMC10567573.

The nature of this data set: protein stability index of a GFP-peptide fusion (GPS, HEK-293T) (PSI 1-6); higher = more stable.
[1] abbreviates: treatment: DMSO, c terminus: a fixed tail appended.
Where [2] appears, read: treatment: MLN4924 1 uM, 8 h, c terminus: a fixed tail appended.
Where [3] appears, read: treatment: DMSO, c terminus: native.
Setting [4] is: treatment: MLN4924 1 uM, 8 h, c terminus: native.

± gives the standard deviation.
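Note: 24-mer peptide tiles fused after GFP, lentivirally expressed, FACS-sorted into six equal bins by GFP/DsRed ratio, decoded by Illumina sequencing, PSI is the read-weighted mean bin number.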

On to DYWNLQKDYYPINESLASLPLRVS [CLPTM1], for which the protein stability index turned out to be 2.4 ± 0.2 under setting [1] and 2.52 ± 0.17 under setting [2].

For the sequence STMTSSVQIYNLSQNIQEDDLQQL [ATL3], the protein stability index runs as follows: under setting [1], 4.45 ± 0.13; under setting [2], 4.57 ± 0.31.

For the sequence GHGEPDVLKDELQLYGDAPGEVVP [TMEM40], the protein stability index runs as follows: under setting [1], 5.36 ± 0.07; under setting [2], 5.35 ± 0.23.

Turning to GFRYSERYDPEPKSKWDEEWDKNK [CLINT1], the protein stability index by setting is: under setting [1], 3.73 ± 0.24; under setting [2], 3.78 ± 0.29.

Consider GIHLALVELLKNLTKYPTDRDSIW [INTS4], for which the protein stability index worked out at 2.77 ± 0.72 under setting [1] and 2.75 ± 1 under setting [2].

For the sequence VDPIGHVYIFATCLGLSYDGLLGD [MAGEA6], the protein stability index runs as follows: under setting [1], 3.17 ± 0.45; under setting [2], 3.1 ± 0.29.

On to EVHRLIEGKAPIISGVTKAISSPT [TPPP], for which the protein stability index by setting is: under setting [1], 3.42 ± 0.18; under setting [2], 3.84 ± 0.28.

Take SPDSSMLCSVGASKAVFLWNMDKY [WSB1]: the protein stability index was 2.35 ± 0.42 under setting [1] and 2.35 ± 0.26 under setting [2].

Take SSQKKDTSSSTVVSTQRSQDHFHV [TIA1]: the protein stability index turned out to be 4.66 ± 0.21 under setting [1] and 4.64 ± 0.25 under setting [2].

Regarding YQPAPYFAAEARYPIYVIPEPPPV [TENT5D], the protein stability index is, setting by setting: under setting [1], 2.02 ± 0.18; under setting [2], 2.35 ± 0.55.

As for EGHSPGNLPKFCHECGTKYPVEWA [ZC2HC1A], the protein stability index under setting [1] is 2.91 ± 0.25 and the protein stability index under setting [2] is 2.97 ± 0.28.

DKELLCCSCQADPRHQGHRVQPVK [TRIM35] returned a protein stability index under setting [1] of 3.56 ± 0.32 and a protein stability index under setting [2] of 4.06 ± 0.3.

Consider CQSVLEDFNLCLFYLPSSPNLSLA [SMG5], for which the protein stability index is, setting by setting: under setting [1], 2.5 ± 0.65; under setting [2], 2.72 ± 0.63.

In turn, KQRLMENTEDWRPRPGTGQSRSFR [PDLIM7] registered a protein stability index under setting [1] of 4.18 ± 0.2 and a protein stability index under setting [2] of 4.418 ± 0.008.

For PQKTYSVKVLAFTSIGDGPLSSDI [PTPRD], the protein stability index was 2.17 ± 0.29 under setting [1] and 1.89 ± 0.3 under setting [2].

Turning to GLGVLRALGSRGWEPFDWGRLLEA [FANCE], the protein stability index by setting is: under setting [1], 2.88 ± 0.2; under setting [2], 2.47 ± 0.042.

Consider LSAEPGWQAKREEEEEEEEEAEAG [CHGA], for which the protein stability index is, setting by setting: under setting [1], 5.62 ± 0.081; under setting [2], 5.4 ± 0.59.

In the case of RHRLRWHSFQSSHRPSLNSVSLQI [DLC1], the protein stability index reads like this: under setting [1], 2.41 ± 0.1; under setting [2], 2.58 ± 0.097.

For DPLSDSDSMTSQAKPEALSSPKFR [ELOA2], the protein stability index is 5.2 ± 0.23 under setting [1] and 5.27 ± 0.17 under setting [2].

Turning to LSEIFPGGIRGRAMALTSSMNWGI [SLC2A12], the protein stability index is, setting by setting: under setting [1], 1.91 ± 0.4; under setting [2], 2.2 ± 0.097.

For ESHSCPQQVPMPPGQEAQRVVCGI [NEK8], the protein stability index is, setting by setting: under setting [1], 4.15 ± 0.28; under setting [2], 4.15 ± 0.12.

FSDSSLIEDSQALHKRPKLDSEYY [LURAP1L]: the protein stability index reads like this: under setting [1], 3.86 ± 0.35; under setting [2], 3.9 ± 0.21.

Take TPYLKETLNSIWNVEDHINPKLPN [POMT2]: the protein stability index reads like this: under setting [1], 3.37 ± 0.28; under setting [2], 3.45 ± 0.2.

With NPVYYGPSDFFIGAVIEVFGHRFI [EFHC1], the protein stability index was determined as 3.04 ± 0.7 under setting [1] and 2.44 ± 0.79 under setting [2].

On to EENIMKSNIDKKFSAHYDAVEAEL [FAM50A], for which the protein stability index reads like this: under setting [1], 4.98 ± 0.19; under setting [2], 5.08 ± 0.083.

In turn, CLMGLAETPGCATLLPASLFVNSH [DCAF4] showed a protein stability index under setting [1] of 2.35 ± 0.3 and a protein stability index under setting [2] of 2.35 ± 0.34.

For the sequence KQTREQLHSISDSVLFLQEFGALM [TRIM29], the protein stability index under setting [1] stood at 2.44 ± 0.52 and the protein stability index under setting [2] came out at 2.36 ± 0.34.

ALRSHLKSFSMANGLNARMMHGGS [RAB40B]: the protein stability index was determined as 2.71 ± 0.38 under setting [1] and 2.5 ± 0.62 under setting [2].

The sequence VVKQFVTGIIDSLTISPKAARVGL [MATN2] returned a protein stability index under setting [1] of 2.15 ± 0.34 and a protein stability index under setting [2] of 3.15 ± 1.4.

FPREHQFFEDGDVQRHLYLQDVIM [ZNF511] displayed a protein stability index under setting [1] of 2.45 ± 0.085 and a protein stability index under setting [2] of 2.78 ± 0.28.

As for LLETNPYLLALTIIVSIVHSVFEF [CLPTM1], the protein stability index reads like this: under setting [1], 3.08 ± 0.33; under setting [2], 2.69 ± 0.13.

SSKFYDLFLMDLSEGELGGPSEPG [RHOBTB2] showed a protein stability index under setting [1] of 3.19 ± 0.2 and a protein stability index under setting [2] of 3.25 ± 0.34.

For the sequence ELHQVAERVEALGQFVMKTRRTLK [GNB5], the protein stability index was found to be 2.87 ± 0.12 under setting [1] and 3.1 ± 0.3 under setting [2].

Turning to APTKPHDYRQEQPETFWIQRAPQL [SPAG8], the protein stability index was determined as 3.61 ± 0.11 under setting [1] and 3.73 ± 0.19 under setting [2].

APVPTHSTVSELSRSPVATATSC [DUSP5] showed a protein stability index under setting [3] of 2.72 ± 0.17 and a protein stability index under setting [4] of 2.86 ± 0.13.

Take DEMQEVPNRVLAPEQSLKKTKTSE [SPANXN3]: the protein stability index by setting is: under setting [1], 5.57 ± 0.2; under setting [2], 5.59 ± 0.24.

As for QALQKEKETLAVNYEKEEEFLTNE [CCDC6], the protein stability index amounted to 5.39 ± 0.15 under setting [1] and 5.3 ± 0.24 under setting [2].

Take RLCRLAGASSPAAYDEALAELHAH [ZSWIM9]: the protein stability index was 3.29 ± 0.36 under setting [1] and 3.33 ± 0.2 under setting [2].

EGAFGEHGSQGTYSNTKENGINGE [MAP2] registered a protein stability index under setting [1] of 5.19 ± 0.31 and a protein stability index under setting [2] of 5.25 ± 0.17.

With GALQIEQSEESDQGKYECVATNSA [PTPRD], the protein stability index under setting [1] is 5.18 ± 0.097 and the protein stability index under setting [2] turned out to be 5.39 ± 0.31.

In the case of VYAGRPLSVIQMVAFLEQRASALL [FBXO34], the protein stability index under setting [1] was determined as 1.98 ± 0.39 and the protein stability index under setting [2] worked out at 2.29 ± 0.35.

Consider GEVEEEADSCFGDDEDDSGTEES [CDC34], for which the protein stability index reads like this: under setting [3], 5.25 ± 0.37; under setting [4], 5.29 ± 0.15.

As for HELTAKYLNYYQGMLDVADESLTD [P3H4], the protein stability index came to 4.01 ± 0.3 under setting [1] and 3.89 ± 0.48 under setting [2].

With EDSRTSKESMSEADRAQKMDGESE [EHMT1], the protein stability index by setting is: under setting [1], 5.5 ± 0.33; under setting [2], 5.64 ± 0.23.

WEFKLSDPDEVARRWGKRKNKPKM [ETS1]: the protein stability index runs as follows: under setting [1], 3.65 ± 0.27; under setting [2], 3.67 ± 0.067.

Consider LAIDFIDEGRLLLEFDLLIFSFGQ [SOAT2], for which the protein stability index was 3.35 ± 0.39 under setting [1] and 2.78 ± 0.57 under setting [2].

As to SFCLEDTECEGDIQKNYECANFGD [LOXL2], the protein stability index runs as follows: under setting [1], 5.14 ± 0.14; under setting [2], 5.33 ± 0.2.

With RRFLLCLYLVGFLDLFGVSMVVPL [MFSD9], the protein stability index reads like this: under setting [1], 2.91 ± 0.57; under setting [2], 3.4 ± 0.17.

Take YSLASGAGGGGSKGNSLKRSKSIR [RAB40C]: the protein stability index under setting [1] came out at 4.37 ± 0.17 and the protein stability index under setting [2] turned out to be 4.41 ± 0.26.

Consider MATPDAGLPGAEGVEPAPWAQLEA [FANCE], for which the protein stability index reads like this: under setting [1], 4.86 ± 0.32; under setting [2], 4.96 ± 0.27.

GKELAGTMDGEGTLFQTESPQSGS [PBXIP1]: the protein stability index by setting is: under setting [1], 5.42 ± 0.43; under setting [2], 5.38 ± 0.17.

On to VPDGLGLDEAREEEGDREVVLYG [TRIB3], for which the protein stability index amounted to 4.96 ± 0.33 under setting [3] and 5.26 ± 0.28 under setting [4].

LSVGQYNCPGQYTFSMPSDSHVSS [CD69]: the protein stability index runs as follows: under setting [1], 3.05 ± 0.28; under setting [2], 3.07 ± 0.27.

For TGELVGPFVSAMPTPMPHNKGTRF [ZBED2], the protein stability index reads like this: under setting [1], 3.64 ± 0.11; under setting [2], 3.79 ± 0.23.

As to LPATLVMTVPATAIYFTAYDQLKA [SLC25A39], the protein stability index reads like this: under setting [1], 3.02 ± 0.33; under setting [2], 3 ± 0.51.

With RQLTKPRPVILDPADPTGNLGGGD [OAS1], the protein stability index reads like this: under setting [1], 4.65 ± 0.23; under setting [2], 4.48 ± 0.31.

Consider MGYMLFNERMLESYLHAKKYLKPS [CARM1], for which the protein stability index turned out to be 2.35 ± 0.17 under setting [1] and 2.08 ± 0.32 under setting [2].

For the sequence NIYENGDVCISILHPPVDDPQSGE [UBE2R2], the protein stability index by setting is: under setting [1], 4.37 ± 0.1; under setting [2], 4.55 ± 0.087.

RRILDELTLCRSDLEAQMESLKEE [KRT33B]: the protein stability index is, setting by setting: under setting [1], 4.56 ± 0.14; under setting [2], 4.66 ± 0.11.

AEDEEMNRMHESMKLFDSICNNKW [GNAI1] had a protein stability index under setting [1] of 3.97 ± 0.21 and a protein stability index under setting [2] of 4.02 ± 0.22.

For the sequence DDAVAGDFALINKLDIQCDLKTLS [ATE1], the protein stability index reads like this: under setting [1], 4.18 ± 0.34; under setting [2], 4 ± 0.17.

The sequence PHGQYGGHHQGMPGYLPGAMPPYG [ZNF207] showed a protein stability index under setting [1] of 2.93 ± 0.33 and a protein stability index under setting [2] of 3.09 ± 0.41.

For the sequence LHCYRDRPHEVLLCSDLVKAYQRC [CHCHD6], the protein stability index under setting [1] came to 2.16 ± 0.36 and the protein stability index under setting [2] turned out to be 2.19 ± 0.24.

On to NVLHGYPKDIYSSFGFPRTVKHID [MMP1], for which the protein stability index is 2.63 ± 0.098 under setting [1] and 2.74 ± 0.24 under setting [2].

On to SALTLACYKGHLEMVRFLLEAGAD [ANKRD17], for which the protein stability index is, setting by setting: under setting [1], 3.08 ± 0.31; under setting [2], 2.69 ± 0.24.

Turning to NLPSGGKGFKLRRQPSEPKRSCC [RAB22A], the protein stability index came out at 3.89 ± 0.34 under setting [3] and 4 ± 0.35 under setting [4].

As for TPTPFFHTFAGDDCQAGLNFADED [WAS], the protein stability index was 4.86 ± 0.25 under setting [1] and 5 ± 0.07 under setting [2].

As to SLLQKVSPVAHKHLSRQKIDPLLY [TBC1D10A], the protein stability index is, setting by setting: under setting [1], 2.07 ± 0.19; under setting [2], 2.24 ± 0.2.

With PNIVVAIAGNKCDLIDVREVMERD [RAB22A], the protein stability index came out at 3.68 ± 0.14 under setting [1] and 3.68 ± 0.25 under setting [2].

For YLKNLPLLSKYCGYREDNIPQLED [TPH1], the protein stability index is, setting by setting: under setting [1], 2.57 ± 0.09; under setting [2], 2.77 ± 0.2.

On to IQHRRTHTDSKYEHAIAEAQKNMY [ZNF396], for which the protein stability index reads like this: under setting [1], 3.78 ± 0.27; under setting [2], 3.96 ± 0.21.

Consider DVHNRIVIRGLNTIPLFVQLLYSP [CTNNB1], for which the protein stability index came to 2.58 ± 0.58 under setting [1] and 2.73 ± 0.5 under setting [2].
